Paper PMC3406077 (2012)

B1: wild-type full-length (C24-P237) pallilysin [Treponema pallidum subsp. pallidum (Nichols strain)] / plasminogen-depleted human fibrinogen [human] (parent complex)
chain 1: CFQHGHVPPRRIPPHDTFGALPTAALPSNARDTAAHPSDTADNTSGSSTTTDPRSHGNAPPAPVGGAAQTHTQPPVQTAMRIALWNRATHGEQGALQHLLAGLWIQTEISPNSGDIHPLLFFDREHAEITFSRASVQEIFLVDSAHTHRKTVSFLTRNTAISSIRRRLEVTFESHEVIHVRAVEDVARLKIGSTSMWDGQYTRYHAGPASAPSP
chain 2: ADSGEGDFLAEGGGVRGPRVVERHQSACKDSDWPFCSDEDWNYKCPSGCRMKGLIDEVNQDFTNRINKLKNSLFEYQKNNKDSHSLTTNIMEILRGDFSSANNRDNTYNRVSEDLRSRIEVLKRKVIEKVQHIQLLQKNVRAQLVDMKRLEVDIDIKIRSCRGSCSRALAREVDLKDYEDQQKQLEQVIAKDLLPSRDRQHLPLIKMKPVPDLVPGNFKSQLQKVPPEWKALTDMPQMRMELERPGGNEITRGGSTSYGTGSETESPRNPSSAGSWNSGSSGPGSTGNRNPGSSGTGGTATWKPGSSGPGSTGSWNSGSSGTGSTGNQNPGSPRPGSTGTWNPGSSERGSAGHWTSESSVSGSTGQWHSESGSFRPDSPGSGNARPNNPDWGTFEEVSGNVSPGTRREYHTEKLVTSKGDKELRTGKEKVTSGSTTTTRRSCSKTVTKTVIGPDGHKEVTKEVVTSEDGSDCPEAMDLGTLSGIGTLDGFRHRHPDEAAFFDTASTGKTFPGFFSPMLGEFVSETESRGSESGIFTNTKESSSHHPGIAEFPSRGKSSSYSKQFTSSTSYNRGDSTFESKSYKMADEAGSEADHEGTHSTKRGHAKSRPVRGIHTSPLGKPSLSP
chain 3: QGVNDNEEGFFSARGHRPLDKKREEAPSLRPAPPPISGGGYRARPAKAAATQKKVERKAPDAGGCLHADPDLGVLCPTGCQLQEALLQQERPIRNSVDELNNNVEAVSQTSSSSFQYMYLLKDLWQKRQKQVKDNENVVNEYSSELEKHQLYIDETVNSNIPTNLRVLRSILENLRSKIQKLESDVSAQMEYCRTPCTVSCNIPVVSGKECEEIIRKGGETSEMYLIQPDSSVKPYRVYCDMNTENGGWTVIQNRQDGSVDFGRKWDPYKQGFGNVATNTDGKNYCGLPGEYWLGNDKISQLTRMGPTELLIEMEDWKGDKVKAHYGGFTVQNEANKYQISVNKYRGTAGNALMDGASQLMGENRTMTIHNGMFFSTYDRDNDGWLTSDPRKQCSKEDGGGWWYNRCHAANPNGRYYWGGQYTWDMAKHGTDDGVVWMNWKGSWYSMRKMSMKIRPFFPQQ
chain 4: YVATRDNCCILDERFGSYCPTTCGIADFLSTYQTKVDKDLQSLEDILHQVENKTSEVKQLIKAIQLTYNPDESSKPNMIDAATLKSRKMLEEIMKYEASILTHDSSIRYLQEIYNSNNQKIVNLKEKVAQLEAQCQEPCKDTVQIHDITGKDCQDIANKGAKQSGLYFIKPLKANQQFLVYCEIDGSGNGWTVFQKRLDGSVDFKKNWIQYKEGFGHLSPTGTTEFWLGNEKIHLISTQSAIPYALRVELEDWNGRTSTADYAMFKVGPEADKYRLTYAYFAGGDAGDAFDGFDFGDDPSDKFFTSHNGMQFSTWDNDNDKFEGNCAEQDGSGWWMNKCHAGHLNGVYYQGGTYSKASTPNGYDNGIIWATWKTRWYSMKKTTMKIIPFNRLTIGEGQQHHLGGAKQAGDV

Variants of: B1
Assay: ELISA; 20 µg protein per well; fibrinogen 0.5 µg per well; parent: 3.2; read off a plot

Going from chain 1 CFQHGHVPPRRIPPHDTFGALPTAALPSNARDTAAHPSDTADNTSGSSTTTDPRSHGNAPPAPVGGAAQTHTQPPVQTAMRIALWNRATHGEQGALQHLLAGLWIQTEISPNSGDIHPLLFFDREHAEITFSRASVQEIFLVDSAHTHRKTVSFLTRNTAISSIRRRLEVTFESAEVIHVRAVEDVARLKIGSTSMWDGQYTRYHAGPASAPSP [chain 1 H175A] to chain 1 CFQHGHVPPRRIPPHDTFGALPTAALPSNARDTAAHPSDTADNTSGSSTTTDPRSHGNAPPAPVGGAAQTHTQPPVQTAMRIALWNRATHGEQGALQHLLAGLWIQTEISPNSGDIHPLLFFDREHAEITFSRASVQEIFLVDSAHTHRKTVSFLTRNTAISSIRRRLEVTFESHEVIAVRAVEDVARLKIGSTSMWDGQYTRYHAGPASAPSP [chain 1 H179A], the response falls from ~3.5 O.D. (492 nm) to ~3.1 O.D. (492 nm).

In the case of chain 1 CFQHGHVPPRRIPPHDTFGALPTAALPSNARDTAAHPSDTADNTSGSSTTTDPRSHGNAPPAPVGGAAQTHTQPPVQTAMRIALWNRATHGEQGALQHLLAGLWIQTEISPNSGDIHPLLFFDREHAEITFSRASVQEIFLVDSAHTHRKTVSFLTRNTAISSIRRRLEVTFESHAVIHVRAVEDVARLKIGSTSMWDGQYTRYHAGPASAPSP [chain 1 E176A], the response is reported as ~3.5 O.D. (492 nm).
